Test [1] deals with feline FcRn (IgG receptor FcRn large subunit p51 with feline beta-2-microglobulin) (feline). The test can be described thus: SPR Biacore 8K+, IgG on C1 chip, pH 5.9, 1:1 kinetic fit. Background: In SPR one partner is held on a chip, and binding of the other changes the refractive index at the surface.
Test [2] has as its target feline FcRn (FCN-F82W3, Acrobiosystems) (feline). In words: SPR Carterra, IgG coupled, pH 6.0.
For test [3] the target is unchanged. In words: SPR Carterra, IgG coupled, pH 7.4.
Test [4] deals with feline FcRn (IgG receptor FcRn large subunit p51 with feline beta-2-microglobulin) (feline). In words: SPR Biacore 8K+, IgG on C1 chip, pH 5.9, kinetic fit (printed 1:4).

B1: anti-NGF feline IgG1a, Fc variant S428Y (antibody, part only; not given: anti-NGF variable domains, not shown: another chain or arm of the molecule; small tags and cut ends)
Fc: PPEMLGGPSIFIFPPKPKDTLSISRTPEVTCLVVDLGPDDSDVQITWFVDNTQVYTAKTSPREEQFNSTYRVVSVLPILHQDWLKGKEFKCKVNSKSLPSPIERTISKAKGQPHEPQVYVLPPAQEELSRNKVSVTCLIKSFHPPDIAVEWEITGQPEPENNYRTTPPQLDSDGTYFVYSKLSVDRSHWQRGNTYTCSVYHEALHSHHTQKSLTQSPGK
In general, Kd refers to the equilibrium constant for the complex coming apart. Broadly, the koff is a measure of how fast the partners let go of each other. One may read the kon as a measure of how fast the partners come together. B1: the dissociation constant Kd in test [1] stood at 71.8 nM. Further, in test [2], the dissociation constant (Kd) was 25.6 nM, the koff is 0.0184 s⁻¹ and the on-rate constant (kon) was found to be 718000 M⁻¹ s⁻¹.

B2: anti-NGF feline IgG1a, Fc variant S252W (antibody, part only; not given: anti-NGF variable domains, light chain, not shown: another chain or arm of the molecule; small tags and cut ends)
Fc: PPEMLGGPSIFIFPPKPKDTLWISRTPEVTCLVVDLGPDDSDVQITWFVDNTQVYTAKTSPREEQFNSTYRVVSVLPILHQDWLKGKEFKCKVNSKSLPSPIERTISKAKGQPHEPQVYVLPPAQEELSRNKVSVTCLIKSFHPPDIAVEWEITGQPEPENNYRTTPPQLDSDGTYFVYSKLSVDRSHWQRGNTYTCSVSHEALHSHHTQKSLTQSPGK
With B2, the dissociation constant (Kd) in test [1] is 4.01 nM.

B3: anti-NGF feline IgG1a, Fc variant S428Y, L309V, E380T (antibody, part only; not given: anti-NGF variable domains, light chain, not shown: another chain or arm of the molecule; small tags and cut ends)
Fc: PPEMLGGPSIFIFPPKPKDTLSISRTPEVTCLVVDLGPDDSDVQITWFVDNTQVYTAKTSPREEQFNSTYRVVSVLPIVHQDWLKGKEFKCKVNSKSLPSPIERTISKAKGQPHEPQVYVLPPAQEELSRNKVSVTCLIKSFHPPDIAVTWEITGQPEPENNYRTTPPQLDSDGTYFVYSKLSVDRSHWQRGNTYTCSVYHEALHSHHTQKSLTQSPGK
In turn, B3 returned a dissociation constant (Kd) in test [1] of 20.6 nM.

B4: anti-NGF feline IgG1a, Fc variant S252Y, Q311V (antibody, part only; not given: anti-NGF variable domains, light chain, not shown: another chain or arm of the molecule; small tags and cut ends)
Fc: PPEMLGGPSIFIFPPKPKDTLYISRTPEVTCLVVDLGPDDSDVQITWFVDNTQVYTAKTSPREEQFNSTYRVVSVLPILHVDWLKGKEFKCKVNSKSLPSPIERTISKAKGQPHEPQVYVLPPAQEELSRNKVSVTCLIKSFHPPDIAVEWEITGQPEPENNYRTTPPQLDSDGTYFVYSKLSVDRSHWQRGNTYTCSVSHEALHSHHTQKSLTQSPGK
In test [3], B4 came in with a Kd of 306 nM, a koff of 0.0528 s⁻¹ and a kon of 173000 M⁻¹ s⁻¹. In test [2], this molecule returned a Kd of 3.8 nM, a koff of 0.00405 s⁻¹ and an on-rate (kon) of 1.06e+06 M⁻¹ s⁻¹.

B5: anti-NGF feline IgG1a, Fc variant S428Y, Q311V, E380T (antibody, part only; not given: anti-NGF variable domains, not shown: another chain or arm of the molecule; small tags and cut ends)
Fc: PPEMLGGPSIFIFPPKPKDTLSISRTPEVTCLVVDLGPDDSDVQITWFVDNTQVYTAKTSPREEQFNSTYRVVSVLPILHVDWLKGKEFKCKVNSKSLPSPIERTISKAKGQPHEPQVYVLPPAQEELSRNKVSVTCLIKSFHPPDIAVTWEITGQPEPENNYRTTPPQLDSDGTYFVYSKLSVDRSHWQRGNTYTCSVYHEALHSHHTQKSLTQSPGK
For B5, the Kd in test [1] was 20.1 nM.

B6: anti-NGF feline IgG1a, Fc variant S428Y, Q311V (antibody, part only; not given: Anti-NGF variable domains, not shown: another chain or arm of the molecule; small tags and cut ends)
Fc: PPEMLGGPSIFIFPPKPKDTLSISRTPEVTCLVVDLGPDDSDVQITWFVDNTQVYTAKTSPREEQFNSTYRVVSVLPILHVDWLKGKEFKCKVNSKSLPSPIERTISKAKGQPHEPQVYVLPPAQEELSRNKVSVTCLIKSFHPPDIAVEWEITGQPEPENNYRTTPPQLDSDGTYFVYSKLSVDRSHWQRGNTYTCSVYHEALHSHHTQKSLTQSPGK
With B6, the Kd in test [1] amounted to 32.2 nM. Further, in test [2], the dissociation constant (Kd) is 10.9 nM, the koff stood at 0.00977 s⁻¹ and the kon was 893000 M⁻¹ s⁻¹.

B7: anti-NGF feline IgG1a, Fc variant S428Y, Q311V, T286E (antibody, part only; not given: anti-NGF variable domains, light chain, not shown: another chain or arm of the molecule; small tags and cut ends)
Fc: PPEMLGGPSIFIFPPKPKDTLSISRTPEVTCLVVDLGPDDSDVQITWFVDNTQVYEAKTSPREEQFNSTYRVVSVLPILHVDWLKGKEFKCKVNSKSLPSPIERTISKAKGQPHEPQVYVLPPAQEELSRNKVSVTCLIKSFHPPDIAVEWEITGQPEPENNYRTTPPQLDSDGTYFVYSKLSVDRSHWQRGNTYTCSVYHEALHSHHTQKSLTQSPGK
In test [1], B7 gave a dissociation constant (Kd) of 6.11 nM.

B8: anti-NGF feline IgG1a, Fc variant S428Y, L309V, T286E (antibody, part only; not given: anti-NGF variable domains, not shown: another chain or arm of the molecule; small tags and cut ends)
Fc: PPEMLGGPSIFIFPPKPKDTLSISRTPEVTCLVVDLGPDDSDVQITWFVDNTQVYEAKTSPREEQFNSTYRVVSVLPIVHQDWLKGKEFKCKVNSKSLPSPIERTISKAKGQPHEPQVYVLPPAQEELSRNKVSVTCLIKSFHPPDIAVEWEITGQPEPENNYRTTPPQLDSDGTYFVYSKLSVDRSHWQRGNTYTCSVYHEALHSHHTQKSLTQSPGK
In test [4], B8 gave a dissociation constant (Kd) of 5.26 nM.

B9: anti-NGF feline IgG1a, Fc variant S428Y, L309V (antibody, part only; not given: Anti-NGF variable domains, not shown: another chain or arm of the molecule; small tags and cut ends)
Fc: PPEMLGGPSIFIFPPKPKDTLSISRTPEVTCLVVDLGPDDSDVQITWFVDNTQVYTAKTSPREEQFNSTYRVVSVLPIVHQDWLKGKEFKCKVNSKSLPSPIERTISKAKGQPHEPQVYVLPPAQEELSRNKVSVTCLIKSFHPPDIAVEWEITGQPEPENNYRTTPPQLDSDGTYFVYSKLSVDRSHWQRGNTYTCSVYHEALHSHHTQKSLTQSPGK
Molecule B9 registered a Kd in test [1] of 35.3 nM. For the same molecule, in test [2], the Kd was 13.2 nM, the koff is 0.0112 s⁻¹ and the association rate constant (kon) amounted to 847000 M⁻¹ s⁻¹.

Values taken from patent US20250304650A1.
